From patent US20250215108A1 (OSE IMMUNOTHERAPEUTICS, published 2025)
Several values for one entry are separate records, joined by “and”; a condition that tells them apart may be missing. Identical values can stand only once.

Assays:
[1] = target: T1, recombinant hSIRPa (Sino Biologicals, reference 10975-H08H) (human, UniProt P78324 31-370); experiment: ELISA (ED50), immobilized hSIRPa, anti-mouse Fc detection
T1 construct: Used in the ELISA with the mouse antibodies
Protocol: For the ELISA assay with the mouse antibodies, a recombinant hSIRPa (Sino Biologicals, Beijing, China; reference 10975-H08H) was immobilized on plastic at 0.5 μg/ml in carbonate buffer (pH 9.2) and the purified antibody was added to measure binding.

[2] = target: T2, SIRPa on human monocytes (human, UniProt P78324 31-504); experiment: flow cytometry on human monocytes v1/v1 (Fc receptors blocked), PE anti-human Fc; readout MFI
T2 construct: also called human monocytes (v1/v1); SIRPa variant 1 on monocytes
Protocol: (§1) FIG. 3A, B, C, D, E, F, G. Binding analyses of anti-SIRPa antibodies on human monocytes (homozygote for SIRPa variant 1 (v1/v1)). [0478] […] Revelation was performed with a PE labeled mouse anti-human Fc mAb on Cantoll cytometer, values corresponding to percentage of stained monocytes. […] A corresponds to the percentage of monocytes v1/v1 stained. B corresponds to the mean of fluorescence intensity (MFI) of monocytes v1/v1. [0479] […] D represents the percentage of stained monocytes over antibody dose response. Statistical analysis were performed when it was possible. [0480] (E, F, G) SIRPa variants binding in the population by anti-h SIRPa antibodies: The capacity of different anti-hSIRPa antibodies to bind SIRPa variants in the 32 volunteers was measured by FACS with a PE-anti mouse IgG. […] F represents the homozygote variant 2 volunteers (n=8). G represents the heterozygote V1/V2 volunteers (n=8).
(§2) Method: To measure the binding of the anti-SIRPa antibodies on human monocytes, human Fc Receptor Binding Inhibitor (BD pharmingen; USA; reference 564220) was first added for 30 min at room-temperature to block human Fc receptors on human monocytes to reduce background. Then, an antibody was incubated for 30 min at 4° C., and washed before stained 30 min at 4° C. with PE-labelled anti-human IgG Fc (Biolegend; USA; reference 409303). For the mouse antibodies, a PE-labelled anti-mouseIgG (Jackson Immunoresearch; reference 715-116-151) was used. Samples were analyzed on BD LSRII or Canto II cytofluorometer.

[3] = target: T2, SIRPa on human monocytes; experiment: flow cytometry on human monocytes v1/v1 (Fc receptors blocked), PE anti-human Fc; readout % stained monocytes
Protocol: as §1, §2

[4] = target: T2, SIRPa on human monocytes; experiment: competition flow cytometry on human monocytes v1/v1: antibody titrated with biotinylated CD47-Fc (competitor; 10 µg/ml in the legend, 5 µg/ml in Example 5), PE-streptavidin; readout % positives
Text: (§3) FIG. 5A, B, C. […] [0485] […] A corresponds to the percentage of positive cells. B corresponds to the mean of fluorescence intensity. [0486]

[5] = target: T3, CD47 on human blood cells (T cells, red blood cells, platelets) (human, UniProt Q08722 19-323); experiment: flow cytometry on human red blood cells (left panel) and freshly isolated human platelets (right panel)
T3 construct: whole, on cells

[6] = target: T2, SIRPa on human monocytes; experiment: competition flow cytometry on human monocytes v1/v1: antibody titrated with biotinylated CD47-Fc (competitor; 10 µg/ml in the legend, 5 µg/ml in Example 5), PE-streptavidin; readout median fluorescence
Text: as §3

Binder | EC50 [1] | EC50 [2] [µg/mL] | EC50 [3] [µg/mL] | IC50 [4] [µg/mL] | binding result [5] | IC50 [6] [µg/mL]
HFLA (humanized 18D5 variant) (antibody, human IgG4 S228P, kappa, V domains shown) VH: EVQLVQSGAEVKKPGESLRISCKASGYSFTSYWVHWVRQMPGKGLEWMGNIDPSDSDTHYSPSFQGHVTLSVDKSISTAYLQLSSLKASDTAMYYCVRGGTGTMAYFAYWGQGTLVTVSS VL: DVVMTQSPLSLPVTLGQPASISCRSSQSLVHSYGNTYLYWYQQRPGQSPRLLIYRVSNRFSGVPDRFSGSGSGTDFTLKISRVEAEDVGVYFCFQGTHVPYTFGGGTKVEIKR |  | 0.328 | 0.174 |  |  | 
HALA (humanized 18D5 variant) (antibody, human IgG4 S228P, kappa, V domains shown) VH: EVQLVQSGAEVKKPGESLRISCKASGYTFTSYWVHWVRQMPGKGLEWIGNIDPSDSDTHYNQKFKDHVTLSVDKSISTAYLQLSSLKASDTAMYYCVRGGTGTMAWFAYWGQGTLVTVSS VL: DVVMTQSPLSLPVTLGQPASISCRSSQSLVHSYGNTYLYWYQQRPGQSPRLLIYRVSNRFSGVPDRFSGSGSGTDFTLKISRVEAEDVGVYFCFQGTHVPYTFGGGTKVEIKR |  | 0.59 | 0.242 |  |  | 
HEFLA (humanized 18D5 variant) (antibody, human IgG4 S228P, kappa, V domains shown) VH: EVQLVQSGAEVKKPGESLRISCKASGYSFTSYWVHWVRQMPGKGLEWMGNIDPSDSDTHYSPSFQGHVTLSVDKSISTAYLQLSSLKASDTAMYYCVRGGTGTLAYFAYWGQGTLVTVSS VL: DVVMTQSPLSLPVTLGQPASISCRSSQSLVHSYGNTYLYWYQQRPGQSPRLLIYRVSNRFSGVPDRFSGSGSGTDFTLKISRVEAEDVGVYFCFQGTHVPYTFGGGTKVEIKR |  | 0.858 | 0.356 |  |  | 
HEFLB (humanized 18D5 variant) (antibody, human IgG4 S228P, kappa, V domains shown, also called anti-SIRPa HEFLB; HEFLB variant) VH: EVQLVQSGAEVKKPGESLRISCKASGYSFTSYWVHWVRQMPGKGLEWMGNIDPSDSDTHYSPSFQGHVTLSVDKSISTAYLQLSSLKASDTAMYYCVRGGTGTLAYFAYWGQGTLVTVSS VL: DVVMTQSPLSLPVTLGQPASISCRSSQSLVHSYGNTYLYWFQQRPGQSPRLLIYRVSNRFSGVPDRFSGSGSGTDFTLKISRVEAEDVGVYYCFQGTHVPYTFGGGTKVEIKR |  | 0.449 | 0.208 |  | no binding | 

Second part, the binder after the results:

EC50 [1] | EC50 [2] [µg/mL] | EC50 [3] [µg/mL] | IC50 [4] [µg/mL] | binding result [5] | IC50 [6] [µg/mL] | Binder
0.06 nM and 0.009 µg/mL |  |  |  |  |  | mouse antibody 18D5 (antibody, mouse IgG2b, kappa, also called m18D5; m18D5 clone) heavy: QVQLQQPGAELVRPGSSVKLSCKASGYTFTSYWVHWVKQRPIQGLEWIGNIDPSDSDTHYNQKFKDKASLTVDKSSSTAYMQLSSLTFEDSAVYYCVRGGTGTMAWFAYWGQGTLVTVSAAKTTPPSVYPLAPGCGDTTGSSVTLGCLVKGYFPESVTVTWNSGSLSSSVHTFPALLQSGLYTMSSSVTVPSSTWPSQTVTCSVAHPASSTTVDKKLEPSGPISTINPCPPCKECHKCPAPNLEGGPSVFIFPPNIKDVLMISLTPKVTCVVVDVSEDDPDVQISWFVNNVEVHTAQTQTHREDYNSTIRVVSTLPIQHQDWMSGKEFKCKVNNKDLPSPIERTISKIKGLVRAPQVYILPPPAEQLSRKDVSLTCLVVGFNPGDISVEWTSNGHTEENYKDTAPVLDSDGSYFIYSKLNMKTSKWEKTDSFSCNVRHEGLKNYYLKKTISRSPGK light: DVVMTQTPLSLPVSLGDQASISCRSSQSLVHSYGNTYLYWYLQKPGQSPKLLIYRVSNRFSGVPDRFSGSGSGTDFTLKISRVEAEDLGVYFCFQGTHVPYTFGSGTKLEIKRADAAPTVSIFPPSSEQLTSGGASVVCFLNNFYPKDINVKWKIDGSERQNGVLNSWTDQDSKDSTYSMSSTLTLTKDEYERHNSYTCEATHKTSTSPIVKSFNRNEC
 | 0.467 | 0.201 | 0.15 |  |  | HFLB (humanized 18D5 variant) (antibody, human IgG4 S228P, kappa, V domains shown) VH: EVQLVQSGAEVKKPGESLRISCKASGYSFTSYWVHWVRQMPGKGLEWMGNIDPSDSDTHYSPSFQGHVTLSVDKSISTAYLQLSSLKASDTAMYYCVRGGTGTMAYFAYWGQGTLVTVSS VL: DVVMTQSPLSLPVTLGQPASISCRSSQSLVHSYGNTYLYWFQQRPGQSPRLLIYRVSNRFSGVPDRFSGSGSGTDFTLKISRVEAEDVGVYYCFQGTHVPYTFGGGTKVEIKR
 | 0.78 | 0.225 |  |  | 0.2 | chimeric mouse/human 18D5 antibody (antibody, human IgG4 S228P, kappa, also called chimeric antibody; chimeric 18D5) heavy: not shown light: DVVMTQTPLSLPVSLGDQASISCRSSQSLVHSYGNTYLYWYLQKPGQSPKLLIYRVSNRFSGVPDRFSGSGSGTDFTLKISRVEAEDLGVYFCFQGTHVPYTFGSGTKLEIKRTVAAPSVFIFPPSDEQLKSGTASVVCLLNNFYPREAKVQWKVDNALQSGNSQESVTEQDSKDSTYSLSSTLTLSKADYEKHKVYACEVTHQGLSSPVTKSFNRGEC
